This note sets out measurements from PMC8471396.

Experiment [1] has as its target succinate-acetate permease (SatP) from Citrobacter koseri ATCC BAA-895 (Citrobacter koseri ATCC BAA-895). The experiment in a line: cross-linking; SatP in DOPC/DOPG liposomes, 10 uM protein in 20 mM HEPES pH 7.3; 0.5 mM BS3 (DMSO as control), room temperature, 1 h; 4-20% gradient SDS-PAGE.
For experiment [2] the target is unchanged. The experiment in a line: SDS-PAGE and Western blot of oligomer bands; SatP in SMA native nanodiscs from E. coli membranes, after the nickel affinity column; no cross-linker; anti-His Western blot.

Several values for one entry are separate records, joined by “and”; a condition that tells them apart may be missing. Equal values may be shown once.

As for “succinate-acetate permease (SatP) from Citrobacter koseri ATCC BAA-895 (natural protein)”, the stoichiometry N in experiment [1] was 6 and 5 and 4; in experiment [2], 6.
